Common to all, as to assay: UV peptide exchange + HLA class I ELISA; % of Pos control peptide
Conditions in all cases: remark: other sources report otherwise
Background: ELISA stands for enzyme-linked immunosorbent assay.

The target in experiment [1] is HLA-A*03:01 class I complex (biotinylated heavy chain with beta2-microglobulin) (human).
The target in experiment [2] is HLA-B*07:02 class I complex (biotinylated heavy chain with beta2-microglobulin) (human).
Experiment [3] deals with HLA-A*01:01 class I complex (biotinylated heavy chain with beta2-microglobulin) (human).
Experiment [4] has as its target HLA-A*02:01 class I complex (biotinylated heavy chain with beta2-microglobulin) (human).
For experiment [5], the target named is HLA-A*24:02 class I complex (biotinylated heavy chain with beta2-microglobulin) (human).

Among the data in patent US20240139265A1 are exchange rate with Pos peptide values, retold here.

As for CPMSRLRLA (here or on the partner: biotinylated heavy chain) [P46 9-mer neoantigen peptide … (TP53 (R213D) frameshift)], the exchange rate with Pos peptide was 10.3% in experiment [1]; 64.8% in experiment [2]; 2.4% in experiment [3]; 14.4% in experiment [4]; -0.4% in experiment [5].
Take RAKCKFSIL (here or on the partner: biotinylated heavy chain) [P56 9-mer neoantigen peptide … (SPOP(F102C) missense)]: the exchange rate with Pos peptide in experiment [1] was 6.8%; in experiment [2], 82.5%; in experiment [3] it was 2.6%; in experiment [4] it was 8.4%; in experiment [5], 0.5%.
For the molecule CYLGRQKRF (here or on the partner: biotinylated heavy chain) [P61 9-mer neoantigen peptide … (FOXA1.p.R261G missense)], the exchange rate with Pos peptide in experiment [3] amounted to 1.7%; in experiment [4], 5.8%; in experiment [5], 90.3%.
As for YCMAAPMGL (here or on the partner: biotinylated heavy chain) [P76 9-mer neoantigen peptide … (AR-V3 splice variant)], the exchange rate with Pos peptide in experiment [1] was 6%; in experiment [2], 91.5%; in experiment [3], 0.1%; in experiment [4], 85.9%; in experiment [5], -0.5%.
For RAVRRMNTF (here or on the partner: biotinylated heavy chain) [P17 9-mer neoantigen peptide … (MSMB-NOCA4 fusion)], the exchange rate with Pos peptide in experiment [1] turned out to be 3.8%; in experiment [2] it was 38.7%; in experiment [3], 4.9%; in experiment [5] it was 0.1%.
In the case of IPVLTRWPL (here or on the partner: biotinylated heavy chain) [P19 9-mer neoantigen peptide … (TMEM222-LOC644961 fusion)], the exchange rate with Pos peptide in experiment [1] amounted to 4.1%; in experiment [2], 91.3%; in experiment [3] it was 5.2%; in experiment [4], 8.2%; in experiment [5], 0.1%.
The matching figures for LMAQRLLLR (here or on the partner: biotinylated heavy chain) [P97 9-mer neoantigen peptide … (FOXRED2-TXN2 fusion)]: 39%, 7%, 2.5%, 4.6% and 0.1%.
In the case of HVPKILSGK (here or on the partner: biotinylated heavy chain) [P58 9-mer neoantigen peptide … (AR (Q903H) missense)], the exchange rate with Pos peptide in experiment [1] was 32.5%; in experiment [3], 2.5%; in experiment [4] it was 11.8%; in experiment [5] it was 0.2%.
With IVWWCPMSR (here or on the partner: biotinylated heavy chain) [P98 9-mer neoantigen peptide … (TP53 (R213D) frameshift)], the exchange rate with Pos peptide in experiment [1] is 51.1%; in experiment [2], 6.7%; in experiment [3], 2.5%; in experiment [4], 7.9%; in experiment [5], -0.1%.
In the case of YQFTFDLLI (here or on the partner: biotinylated heavy chain) [P48 9-mer neoantigen peptide … (AR.p.H875Y missense)], the exchange rate with Pos peptide in experiment [1] was found to be 4.4%; in experiment [2], 12.8%; in experiment [3], 4.3%; in experiment [4], 99.3%; in experiment [5] it was 0.1%.
As for FLFLLLPLS (here or on the partner: biotinylated heavy chain) [P87 9-mer neoantigen peptide … (AR-Intron splice variant)], the exchange rate with Pos peptide stood at 2.4% in experiment [1]; 5% in experiment [2]; 1.1% in experiment [3]; 64% in experiment [4]; 0.2% in experiment [5].
The matching figures for RVGNCKHLK (here or on the partner: biotinylated heavy chain) [P82 9-mer neoantigen peptide … (AR-V7 splice variant)]: 58.1%, 12.9%, 1.5%, 6.3% and -0.1%.
For the molecule YLRRQKRLK (here or on the partner: biotinylated heavy chain) [P60 9-mer neoantigen peptide … (FOXA1.p.F266L missense)], the exchange rate with Pos peptide amounted to 36.6% in experiment [1]; 6.1% in experiment [2]; 3.1% in experiment [3]; 7.9% in experiment [4]; 0.9% in experiment [5].
In the case of LLERNSFEV (here or on the partner: biotinylated heavy chain) [P73 9-mer neoantigen peptide … (TP53 (G266E) missense)], the exchange rate with Pos peptide worked out at 3.5% in experiment [1], 8.7% in experiment [2], 89.2% in experiment [4] and 0.5% in experiment [5].
Consider QLIAMDSAI (here or on the partner: biotinylated heavy chain) [P22 9-mer neoantigen peptide … (SLC45A3-ELK4 fusion)], for which the exchange rate with Pos peptide worked out at 4.8% in experiment [1]; 8.3% in experiment [2]; 4.4% in experiment [3]; 46.9% in experiment [4]; 0% in experiment [5].
